In patent US20130130320, “ENZYMES” (published 2013):

Legend:
[1] = test system: Tat (HIV-1?); assay: competition
[2] = target: T1, TGK (TgoT Y409G E664K) (Thermococcus gorgonarius, UniProt P56689 SEQ:1-773, Y409G,E664K); assay: EMSA; second gate mutation vs parental E664; individual mutants and Kd values not stated; Thermopol, 1 mM EDTA; conditions: label: 5'-FITC primer, 5'-biotin template, 5' template overhang
T1 sequence: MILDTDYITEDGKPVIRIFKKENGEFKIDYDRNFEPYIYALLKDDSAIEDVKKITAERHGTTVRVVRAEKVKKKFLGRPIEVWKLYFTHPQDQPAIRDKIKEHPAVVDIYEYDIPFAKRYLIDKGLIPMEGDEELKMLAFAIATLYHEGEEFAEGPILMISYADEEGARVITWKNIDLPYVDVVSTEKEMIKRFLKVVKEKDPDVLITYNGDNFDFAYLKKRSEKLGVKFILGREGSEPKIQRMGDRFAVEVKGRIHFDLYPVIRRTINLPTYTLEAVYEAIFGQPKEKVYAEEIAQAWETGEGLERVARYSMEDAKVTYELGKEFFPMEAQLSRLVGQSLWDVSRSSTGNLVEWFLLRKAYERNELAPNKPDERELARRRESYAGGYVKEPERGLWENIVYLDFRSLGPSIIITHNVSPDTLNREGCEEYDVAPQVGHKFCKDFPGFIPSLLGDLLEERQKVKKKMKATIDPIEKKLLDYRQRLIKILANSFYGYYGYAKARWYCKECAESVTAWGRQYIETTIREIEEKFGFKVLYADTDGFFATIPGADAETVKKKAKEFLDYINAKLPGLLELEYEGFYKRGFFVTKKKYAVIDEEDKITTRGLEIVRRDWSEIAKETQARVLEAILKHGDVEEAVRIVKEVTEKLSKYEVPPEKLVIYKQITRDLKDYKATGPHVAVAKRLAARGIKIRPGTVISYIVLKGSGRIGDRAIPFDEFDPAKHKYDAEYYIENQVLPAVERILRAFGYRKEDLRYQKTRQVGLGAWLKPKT
Description: The reactions were mixed, heated to 94° C. for 30 sec and cooled at 0.1° C./sec to 4° C. before loading onto precooled 6% TBE gel (Invitrogen) and run for 1 h at 100V in precooled 1×TBE. Bands were quantified using a Typhoon Trio and ImageQuant and the shift fitted to y=(Bmax*x)/(Kd+x) using MatLab (The MathWorks Ltd).

Molecule | IC50 ([1]; IC50 of HNA aptamer T5S8-7 displacing Tat from immobilised miniTAR (CI95 1.3-2.8)) [nM] | IC50 ([1]; IC50 of RNA aptamer R06 displacing Tat from immobilised miniTAR (CI95 166-675)) [nM] | binding result [2]
miniTAR RNA | 1.9 | 313 | –
K0 DNA primer / TempK4 (dsDNA) DNA 1: GCACGGCAGCACGTG DNA 2: ACTGCGATGACTGTACTCGTCTAGTAGCACTGCACGTGCTGCCGTGC | – | – | binds
